Laboratory results reported in publication PMC3332082.

How the values were obtained:
[1] = biological target: murine cdb3-GFP, deletion of residues 19-23 (mouse) (UniProt P04919); assay: FRET or BRET
[2] = biological target: murine cdb3-GFP, substitution of residues 12-23 (all 7 acidic residues to amides) (mouse) (UniProt P04919); assay: FRET or BRET
[3] = biological target: murine cdb3-GFP, substitution of residues 19-23 (acidic residues to amides) (mouse) (UniProt P04919); assay: FRET or BRET
[4] = biological target: murine cdb3-GFP, substitution of residues 25-31 (negative residues introduced) (mouse) (UniProt P04919); assay: other fluorescence titration

reduction in deoxyHb binding against wild type [1]: 60% | affinity for deoxyHb, percent of normal [2]: 15% | reduction in deoxyHb binding against wild type [3]: 60% | Kd [4]: 390 nM
Substance: murine hemoglobin (from erythrocytes of C57BL/6J mice) (from UniProt P01942 1-142; P02088 1-147) (complex)
